The results in this text go back to US20140294898A1 (published 2014).

Positions of bridges follow the written chain, without caps; N, C: chain ends. Non-standard residues stand in square brackets, D forms with d. NMeNle = CCCC[C@H](NC)C(=O)O; NMeA = CN[C@@H](C)C(=O)O

To fix the notation:
B1: Compound No. 2 (peptide)
peptide: {CH2CO}-F[NMeA]NPHHSWRW[NMeNle][NMeNle]LCG-NH2
modifications: thioether N-14
SMILES: CCCC[C@H]1C(=O)N(C)[C@@H](CCCC)C(=O)N[C@@H](CC(C)C)C(=O)N[C@H](C(=O)NCC(N)=O)CSCC(=O)N[C@@H](Cc2ccccc2)C(=O)N(C)[C@@H](C)C(=O)N[C@@H](CC(N)=O)C(=O)N2CCC[C@H]2C(=O)N[C@@H](Cc2c[nH]cn2)C(=O)N[C@@H](Cc2c[nH]cn2)C(=O)N[C@@H](CO)C(=O)N[C@@H](Cc2c[nH]c3ccccc23)C(=O)N[C@@H](CCCNC(=N)N)C(=O)N[C@@H](Cc2c[nH]c3ccccc23)C(=O)N1C
B2: Compound No. 71 (peptide)
peptide: FFXGDVFYGWYLCG
HELM: PEPTIDE1{[O=C(C[*:3])[*:2]].F.[meF].[CCCC[C@@H](C(=O)[*:2])N(C)[*:1]].[Sar].D.V.[meF].Y.[Sar].W.Y.L.C.G.[am]}$PEPTIDE1,PEPTIDE1,1:R3-14:R3$$$V2.0
SMILES: CCCC[C@H]1C(=O)N(C)CC(=O)N[C@@H](CC(=O)O)C(=O)N[C@@H](C(C)C)C(=O)N(C)[C@@H](Cc2ccccc2)C(=O)N[C@@H](Cc2ccc(O)cc2)C(=O)N(C)CC(=O)N[C@@H](Cc2c[nH]c3ccccc23)C(=O)N[C@@H](Cc2ccc(O)cc2)C(=O)N[C@@H](CC(C)C)C(=O)N[C@H](C(=O)NCC(N)=O)CSCC(=O)N[C@@H](Cc2ccccc2)C(=O)N(C)[C@@H](Cc2ccccc2)C(=O)N1C
B3: Compound No. 99 (peptide)
peptide: {CH2CO}-FLIVIRDRVFRCG-NH2
modifications: thioether N-12

T1 sequence (Q9NZQ7 other isoform, or with tags, fused parts or gaps): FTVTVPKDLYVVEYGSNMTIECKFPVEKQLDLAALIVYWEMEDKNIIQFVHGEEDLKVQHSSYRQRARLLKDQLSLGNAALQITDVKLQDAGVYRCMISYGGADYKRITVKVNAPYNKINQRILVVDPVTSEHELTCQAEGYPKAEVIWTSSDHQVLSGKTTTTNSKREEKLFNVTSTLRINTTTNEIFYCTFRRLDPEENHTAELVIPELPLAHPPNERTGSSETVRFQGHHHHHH

The first experiment has as its target T1, hPDL1(19-239)-TVMV-His (recombinant human PD-L1-TVMV-His) (UniProt Q9NZQ7 19-239). Put plainly: HTRF PD-1/PD-L1 binding inhibition. Background: TR-FRET usually uses a lanthanide donor and a delayed reading to cut background.
The term IC50 denotes the concentration that inhibits the measured activity by half. Take B1: the IC50 was found to be 14 nM.
On the same count and under the same terms, the figure for B2 is 1 nM; for B3 it is 90 nM.

A further experiment has as its target T1, hPDL1(19-239)-TVMV-His (recombinant …). Put plainly: HTRF competition with biotinylated Compound No. 71.
With B1, the IC50 is 584 nM.
Still for that read-out and setting: the same measure for B2: 83 nM; for B3: 4310 nM.

The target in another experiment is human PD-L1 on cells (human, UniProt Q9NZQ7 19-290). The experiment is described as follows: cell binding assay, blocking of PD-1-Ig (PE) to LK35.2-hPD-L1 cells.
Chain of human PD-L1 on cells (Q9NZQ7 19-290): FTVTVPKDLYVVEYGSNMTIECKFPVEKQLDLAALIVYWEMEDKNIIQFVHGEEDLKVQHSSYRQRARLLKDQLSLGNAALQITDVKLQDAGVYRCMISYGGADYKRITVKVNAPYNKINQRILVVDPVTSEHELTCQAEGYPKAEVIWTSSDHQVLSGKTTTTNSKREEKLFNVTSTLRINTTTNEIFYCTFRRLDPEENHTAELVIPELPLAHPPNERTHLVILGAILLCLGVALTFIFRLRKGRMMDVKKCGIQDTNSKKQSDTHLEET
On to B1, for which the IC50 was found to be 40 nM.
On the same count and under the same terms, the same measure for B2: 1 nM; for B3: 133 nM.
